Measured values reported in patent US10745460B2, “Peptides and combination of peptides for use in immunotherapy against various tumors” (Immatics Biotechnologies GmbH, priority 2015, dated 2020).

tested on: CD8+ T cells; test: In vitro T-cell priming assay with aAPCs loaded with peptide/MHC complexes and anti-CD28 antibody (in vitro immunogenicity); format: cell-based, human; conditions: percentage of positive donors, healthy HLA-A*02 donors
Source text: In order to obtain information regarding the immunogenicity of the TUMAPs of the present invention, the inventors performed investigations using an in vitro T-cell priming assay based on repeated stimulations of CD8+ T cells with artificial antigen presenting cells (aAPCs) loaded with peptide/MHC complexes and anti-CD28 antibody.
In order to perform in vitro stimulations by artificial antigen presenting cells loaded with peptide-MHC complex (pMHC) and anti-CD28 antibody, the inventors first isolated CD8+ T cells from fresh HLA-A*02 leukapheresis products via positive selection using CD8 microbeads (Miltenyi Biotec, Bergisch-Gladbach, Germany) of healthy donors obtained from the University clinics Mannheim, Germany, after informed consent. […] Generation of pMHC/anti-CD28 coated beads, T-cell stimulations and readout was performed in a highly defined in vitro system using four different pMHC molecules per stimulation condition and 8 different pMHC molecules per readout condition. […]
800.000 beads/200 μl were coated in 96-well plates in the presence of 4×12.5 ng different biotin-pMHC, washed and 600 ng biotin anti-CD28 were added subsequently in a volume of 200 μl. […] Peptide specific cells were calculated as percentage of total CD8+ cells. […] In vitro priming of specific multimer+ CD8+ lymphocytes was detected by comparing to negative control stimulations. […]

| Substance | donors |
| --- | --- |
| 288 (SLYKGLLSV; listed as Homo sapiens) [compound 288] | ++++ (>=70% = ++++) |

same assay, conditions: percentage of positive wells, healthy HLA-A*02 donors

| Substance | wells |
| --- | --- |
| 287 (KIQEILTQV; listed as Homo sapiens) [compound 287] | + (<20% = +) |

biological target: HLA-A*02:01 (Homo sapiens, UniProt P04439, D140Y/D185E/D98H/E176V/E277Q/G131W/G231S/I119V/I121R/I166T/I218V/L300P/L318F/N151K/N90K/P208A/P217A/Q86G/Q94H/R138H/R169H/T345S); test: MHC binding assay: UV-ligand exchange with β2m ELISA (peptide exchange yield); conditions: binding to HLA-A*02:01 evaluated by peptide exchange yield (UV-ligand exchange, β2m ELISA)
Method in brief: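 UV-exchange pMHC monomers, 100-fold diluted → streptavidin capture 1 h 37 °C → HRP anti-β2m 2 ug/ml 1 h 37 °C → TMB, A450. Yield from HLA-A*02:01/MLA-001 monomer standard curve, 15-500 ng/ml. Only stably bound peptides keep β2m-containing complexes intact.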

| Substance | Peptide exchange |
| --- | --- |
| 267 (YLLDMPLWYL; listed as Homo sapiens) [compound 267] | +++ (≥50 = +++) |
| 270 (TLLTFFHEL; listed as Homo sapiens) [compound 270] | +++ (≥50 = +++) |
| 271 (VLIEYNFSI; listed as Homo sapiens) [compound 271] | +++ (≥50 = +++) |
| 272 (FVMEGEPPKL; listed as Homo sapiens) [compound 272] | ++ (≥20% = ++) |
| 273 (SLNKQIETV; listed as Homo sapiens) [compound 273] | ++ (≥20% = ++) |
| 274 (TLYNPERTITV; listed as Homo sapiens) [compound 274] | +++ (≥50 = +++) |
| 275 (AVPPPPSSV; listed as Homo sapiens) [compound 275] | ++ (≥20% = ++) |
| 277 (KLQEELNKV; listed as Homo sapiens) [compound 277] | +++ (≥50 = +++) |
| 280 (HLWGHALFL; listed as Homo sapiens) [compound 280] | +++ (≥50 = +++) |
| 281 (LLLESDPKVYSL; listed as Homo sapiens) [compound 281] | ++ (≥20% = ++) |
| 286 (FLTEMVHFI; listed as Homo sapiens) [compound 286] | +++ (≥50 = +++) |

Other lines, results leading:

| Peptide exchange | Substance |
| --- | --- |
| ++ (≥20% = ++) | 268 (SLDKDIVAL; listed as Homo sapiens) [compound 268] |
| ++++ (≥75% = ++++) | 269 (GLLDCPIFL; listed as Homo sapiens) [compound 269] |
| +++ (≥50 = +++) | 276 (RMPTVLQCV; listed as Homo sapiens) [compound 276] |
| +++ (≥50 = +++) | 278 (VLEDKVLSV; listed as Homo sapiens) [compound 278] |
| ++ (≥20% = ++) | 279 (VLMDEGAVLTL; listed as Homo sapiens) [compound 279] |
| ++ (≥20% = ++) | 282 (SLYALHVKA; listed as Homo sapiens) [compound 282] |
| +++ (≥50 = +++) | 283 (ALSELLQQV; listed as Homo sapiens) [compound 283] |
| ++ (≥20% = ++) | 284 (KLMDPGSLPPL; listed as Homo sapiens) [compound 284] |
| +++ (≥50 = +++) | 285 (MLLDTVQKV; listed as Homo sapiens) [compound 285] |
